Experimental data: patent US9314532B2, “Drug delivery vehicle” (University of North Texas Health Science Center, priority 2012, dated 2016)
Ends that are not written are not given here.

Legend:
[1] = mRNA encapsulation, particle size; type: physicochemical; details: mRNA/phospholipid particles upon addition of the MYR-5A peptide
Description: In an embodiment of the present invention, ˜2 kb mRNA was encapsulated to improve its functionality and bioavailability. mRNA was combined with phospholipid in the presence of detergent and particles of approximately 3 μm diameter were obtained. […] The smaller particle is suitable for efficient delivery of the mRNA to target cells and for therapeutic applications.

[2] = paclitaxel encapsulation efficiency into myristoyl peptide nanoparticles (3H-paclitaxel); type: physicochemical; details: after centrifugation at 5,000 RPM for 5 minutes
Method: Paclitaxel encapsulation efficiency into myristoyl peptide nanoparticles based on measurements of 3H-paclitaxel is shown in FIG. 8. […] In order to clarify the preparations, the samples were centrifuged at 5,000 RPM for 5 minutes.

“DWLKAFYDKVAEKLKEAFPDWAKAAYDKAAEKAKEAA (also: myristoyl, place not given here) [MYR-5A, control peptide]” gave a particle size [1] of ~500 nm.
In the case of “EKLKALLEKLLAKLKELL (also: myristoyl, place not given here) [compound 39877]”, the “initial amount of paclitaxel retained” value [2] is reported as 60%.
